From patent publication US20160158369A1, “PHARMACEUTICAL COMPOSITION FOR RESPIRATORY ADMINISTRATION” (SEIKAGAKU CORPORATION, priority 2013, published 2016)
Several values for one entry are separate records, joined by “and”; a condition that tells them apart may be missing. Identical values can stand only once.

Experiment: Drug dissociation test: polysaccharide derivative in buffer solution, 36°C, 1 week, HPLC
Assay type: physicochemical
Procedure: In the examples relating to drug dissociation test, the drug dissociation ratio was evaluated as described below.
Sodium dihydrogen phosphate dihydrate (780 mg (5.0 mmol)) was dissolved in 500 mL of distilled water to give a liquid A. Separately, disodium hydrogen phosphate dodecahydrate (1.79 g (5.0 mmol)) was dissolved in 500 mL of distilled water to give a liquid B. By mixing the liquid A and liquid B at ratio of 2:3, a phosphate buffer solution of pH 7.5 was prepared.
0.62 g (10 mmol) of boric acid and 0.75 g (10 mmol) of potassium chloride were weighed and dissolved in 500 mL of distilled water to give a liquid C. Separately, by diluting 0.1 N sodium hydroxide solution with distilled water (×10 dilution), a liquid D was prepared.
50 mL of the liquid C and 7 mL of the liquid D were added to a 100 mL mess flask, and according to dilution to 100 mL with distilled water, a borate buffer solution of pH 8.0 was prepared. Furthermore, 50 mL of the liquid C and 40 mL of the liquid D were added to a 100 mL mess flask, and according to mess-up to 100 mL with distilled water, a borate buffer solution of pH 9.0 was prepared.
Each polysaccharide derivative obtained from above was dissolved in a buffer solution at each pH so as to have a concentration of 5 mg/10 mL, and heated for 1 week in an incubator at 36° C. Then, the drug dissociation ratio during the incubation was evaluated every 24 hours by liquid chromatography (HPLC).
The evaluation was performed by measuring the ratio between the drug amount remained in a polysaccharide derivative and the dissociated drug amount according to use of a size exclusion chromatography column (manufactured by TOSOH, TSKgel α-6000, 7.8 mmI.D.×30 cm).
Detailed conditions for the liquid chromatography are as follows.
Analysis time: 40 minutes
Solution for elution: acetonitrile (for HPLC):physiological saline=1:2
Detector: UV detector (240 nm)

In the case of “Carboxymethyl Cellulose (500) Introduced with 21-β-Alanyl-Budesonide [Compound xxa]”, the “Dissociation ratio (%/day)” value (pH 7.4, 36°C) is reported as 2.8 %/day and 2.6 %/day, the “Dissociation ratio (%/day)” value (pH 7.5, 36°C) is reported as 2.8 %/day and the drug dissociation ratio (pH 7.5, 36°C, day 0) is reported as 2.0%. For the same substance, the drug dissociation ratio (pH 7.5, 36°C, day 1) was 4.8%, the drug dissociation ratio (pH 7.5, 36°C, day 2) was 7.4% and the drug dissociation ratio (pH 7.5, 36°C, day 3) was 10.0%. For the same substance, the drug dissociation ratio (pH 7.5, 36°C, day 4) was 12.6%, the drug dissociation ratio (pH 7.5, 36°C, day 5) was 15.0% and the drug dissociation ratio (pH 7.5, 36°C, day 6) was 17.4%. The drug dissociation ratio (pH 7.5, 36°C, day 7) was 19.8%, the “Dissociation ratio (%/day)” value (pH 8.0, 36°C) was 5.7 %/day and 5.5 %/day and the drug dissociation ratio (pH 8.0, 36°C, day 0) was 2.7%. The drug dissociation ratio (pH 8.0, 36°C, day 1) was 9.9%, the drug dissociation ratio (pH 8.0, 36°C, day 2) was 16.4% and the drug dissociation ratio (pH 8.0, 36°C, day 3) was 22.1%. It also gave a drug dissociation ratio (pH 8.0, 36°C, day 4) of 27.1%, a drug dissociation ratio (pH 8.0, 36°C, day 5) of 31.7% and a drug dissociation ratio (pH 8.0, 36°C, day 6) of 35.9%. The drug dissociation ratio (pH 8.0, 36°C, day 7) was 39.6%.
With “Chondroitin Sulfate Introduced with 11-(2-Fluoro-β-Alanyl)-Propionic Acid Fluticasone [Compound viii]” the “Dissociation ratio (%/day)” value (pH 7.4, 36°C) was 3.1 %/day, the drug dissociation ratio (pH 7.4, 36°C, day 0) was 0.1% and the drug dissociation ratio (pH 7.4, 36°C, day 1) was 7.9%. It also gave a drug dissociation ratio (pH 7.4, 36°C, day 2) of 4.9%, a drug dissociation ratio (pH 7.4, 36°C, day 3) of 12.7% and a drug dissociation ratio (pH 7.4, 36°C, day 4) of 8.4%. The drug dissociation ratio (pH 7.4, 36°C, day 5) was 15.2%, the drug dissociation ratio (pH 7.4, 36°C, day 6) was 14.3% and the drug dissociation ratio (pH 7.4, 36°C, day 7) was 21.8%. The “Dissociation ratio (%/day)” value (pH 8.0, 36°C) was 10.1 %/day, the drug dissociation ratio (pH 8.0, 36°C, day 0) was 0.3% and the drug dissociation ratio (pH 8.0, 36°C, day 1) was 14.8%. It also gave a drug dissociation ratio (pH 8.0, 36°C, day 2) of 26.3%, a drug dissociation ratio (pH 8.0, 36°C, day 3) of 27.1% and a drug dissociation ratio (pH 8.0, 36°C, day 4) of 29.8%. It also gave a drug dissociation ratio (pH 8.0, 36°C, day 5) of 64.5%, a drug dissociation ratio (pH 8.0, 36°C, day 6) of 47.4% and a drug dissociation ratio (pH 8.0, 36°C, day 7) of 70.9%.
With “Chondroitin Sulfate Introduced with 11-Glycyl-Propionic Acid Fluticasone [Compound xvii]” the “Dissociation ratio (%/day)” value (pH 7.4, phosphate buffer solution/acetonitrile (1:1), 36°C) was 0.4 %/day, the drug dissociation ratio (pH 7.4, phosphate buffer solution/acetonitrile (1:1), 36°C, day 0) was 0.0% and the drug dissociation ratio (pH 7.4, phosphate buffer solution/acetonitrile (1:1), 36°C, day 1) was 0.3%. For the same substance, the drug dissociation ratio (pH 7.4, phosphate buffer solution/acetonitrile (1:1), 36°C, day 2) was 0.7%, the drug dissociation ratio (pH 7.4, phosphate buffer solution/acetonitrile (1:1), 36°C, day 3) was 1.3% and the drug dissociation ratio (pH 7.4, phosphate buffer solution/acetonitrile (1:1), 36°C, day 4) was 1.9%. It also gave a drug dissociation ratio (pH 7.4, phosphate buffer solution/acetonitrile (1:1), 36°C, day 5) of 2.3%, a drug dissociation ratio (pH 7.4, phosphate buffer solution/acetonitrile (1:1), 36°C, day 6) of 2.5% and a drug dissociation ratio (pH 7.4, phosphate buffer solution/acetonitrile (1:1), 36°C, day 7) of 2.9%. For the same substance, the “Dissociation ratio (%/day)” value (pH 8.0, borate buffer solution/acetonitrile (1:1), 36°C) was 3.3 %/day, the drug dissociation ratio (pH 8.0, borate buffer solution/acetonitrile (1:1), 36°C, day 0) was 0.0% and the drug dissociation ratio (pH 8.0, borate buffer solution/acetonitrile (1:1), 36°C, day 1) was 4.6%. The drug dissociation ratio (pH 8.0, borate buffer solution/acetonitrile (1:1), 36°C, day 2) was 10.1%, the drug dissociation ratio (pH 8.0, borate buffer solution/acetonitrile (1:1), 36°C, day 3) was 14.1% and the drug dissociation ratio (pH 8.0, borate buffer solution/acetonitrile (1:1), 36°C, day 4) was 17.8%. For the same substance, the drug dissociation ratio (pH 8.0, borate buffer solution/acetonitrile (1:1), 36°C, day 5) was 18.9%, the drug dissociation ratio (pH 8.0, borate buffer solution/acetonitrile (1:1), 36°C, day 6) was 20.0% and the drug dissociation ratio (pH 8.0, borate buffer solution/acetonitrile (1:1), 36°C, day 7) was 22.8%.
In the case of “Chondroitin Sulfate Introduced with 11-β-Alanyl-Propionic Acid Fluticasone [Compound vii]”, the “Dissociation ratio (%/day)” value (pH 7.4, 36°C) is reported as 0.1 %/day, the drug dissociation ratio (pH 7.4, 36°C, day 0) is reported as 0.0% and the drug dissociation ratio (pH 7.4, 36°C, day 1) is reported as 0.0%. For the same substance, the drug dissociation ratio (pH 7.4, 36°C, day 2) was 0.0%, the drug dissociation ratio (pH 7.4, 36°C, day 3) was 0.2% and the drug dissociation ratio (pH 7.4, 36°C, day 4) was 0.4%. For the same substance, the drug dissociation ratio (pH 7.4, 36°C, day 5) was 0.4%, the drug dissociation ratio (pH 7.4, 36°C, day 6) was 0.4% and the drug dissociation ratio (pH 7.4, 36°C, day 7) was 0.4%. The “Dissociation ratio (%/day)” value (pH 8.0, 36°C) was 0.2 %/day, the drug dissociation ratio (pH 8.0, 36°C, day 0) was 0.0% and the drug dissociation ratio (pH 8.0, 36°C, day 1) was 0.3%. The drug dissociation ratio (pH 8.0, 36°C, day 2) was 0.6%, the drug dissociation ratio (pH 8.0, 36°C, day 3) was 0.7% and the drug dissociation ratio (pH 8.0, 36°C, day 4) was 0.7%. It also gave a drug dissociation ratio (pH 8.0, 36°C, day 5) of 1.0%, a drug dissociation ratio (pH 8.0, 36°C, day 6) of 1.0% and a drug dissociation ratio (pH 8.0, 36°C, day 7) of 1.1%.
For “Chondroitin Sulfate Introduced with 21-β-Alanyl-Budesonide (10 kDa) [Compound vc]”, the “Dissociation ratio (%/day)” value (pH 7.4, 36°C) was 1.2 %/day, the drug dissociation ratio (pH 7.4, 36°C, day 0) was 0.4% and the drug dissociation ratio (pH 7.4, 36°C, day 1) was 1.6%. The drug dissociation ratio (pH 7.4, 36°C, day 2) was 2.8%, the drug dissociation ratio (pH 7.4, 36°C, day 3) was 3.7% and the drug dissociation ratio (pH 7.4, 36°C, day 4) was 4.8%. It also gave a drug dissociation ratio (pH 7.4, 36°C, day 5) of 5.3%, a drug dissociation ratio (pH 7.4, 36°C, day 6) of 6.8% and a drug dissociation ratio (pH 7.4, 36°C, day 7) of 8.5%. The “Dissociation ratio (%/day)” value (pH 8.0, 36°C) was 2.0 %/day, the drug dissociation ratio (pH 8.0, 36°C, day 0) was 0.1% and the drug dissociation ratio (pH 8.0, 36°C, day 1) was 1.9%. The drug dissociation ratio (pH 8.0, 36°C, day 2) was 2.4%, the drug dissociation ratio (pH 8.0, 36°C, day 3) was 3.9% and the drug dissociation ratio (pH 8.0, 36°C, day 4) was 7.6%. For the same substance, the drug dissociation ratio (pH 8.0, 36°C, day 5) was 9.7%, the drug dissociation ratio (pH 8.0, 36°C, day 6) was 11.2% and the drug dissociation ratio (pH 8.0, 36°C, day 7) was 14.0%.
